The results in this text go back to article PMC9194504, “Chondroitin Sulfates Control Invasiveness of the Basal-Like Breast Cancer Cell Line MDA-MB-231 Through ROR1” (Frontiers in Oncology, 2022).

For this assay, the target named is T1, Recombinant human ROR1-Fc chimera (human, UniProt Q01973 30-406).
T1 construct: receptor tyrosine kinase-like orphan receptor 1 (ROR1), human; recombinant ROR1-Fc chimera, R&D Systems Cat. No. 9490-RO; also called receptor tyrosine kinase-like orphan receptor 1; recombinant ROR1; source: bought: R&D Systems (Cat. No. 9490-RO)
Briefly: SPR; Biacore X100; ROR1-Fc amine-coupled on a CM5 chip (~3,200 RU); protein analyte premixed with CS-E (CS-E:protein molar ratio 7:1), 30 μl/min, 120 s, dissociation 130 s, 25°C; 50 mM Tris-HCl pH 7.5. As to conditions: both partners purified. (In general: SPR reads the build-up and loss of mass on a sensor chip optically.)

T1 sequence (Q01973 30-406, change not shown): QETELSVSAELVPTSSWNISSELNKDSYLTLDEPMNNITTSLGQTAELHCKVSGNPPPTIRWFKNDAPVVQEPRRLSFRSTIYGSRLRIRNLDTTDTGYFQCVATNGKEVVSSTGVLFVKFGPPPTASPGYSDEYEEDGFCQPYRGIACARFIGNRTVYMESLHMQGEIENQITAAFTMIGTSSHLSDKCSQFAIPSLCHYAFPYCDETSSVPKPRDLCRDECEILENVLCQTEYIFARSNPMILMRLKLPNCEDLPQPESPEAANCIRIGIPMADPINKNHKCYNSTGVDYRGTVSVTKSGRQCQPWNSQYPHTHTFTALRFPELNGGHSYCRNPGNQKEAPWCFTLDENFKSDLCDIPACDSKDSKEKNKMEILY

B1: recombinant human DKK1 (ligand, UniProt O94907 32-266, looked up)
chain: TLNSVLNSNAIKNLPPPLGGAAGHPGSAVSAAPGILYPGGNKYQTIDNYQPYPCAEDEECGTDEYCASPTRGGDAGVQICLACRKRRKRCMRHAMCCPGNYCKNGICVSSDQNHFRGEIEETITESFGNDHSTLDGYSRRTTLSSKMYHTKGQEGSVCLRSSDCASGLCCARHFWSKICKPVLKEGQVCTKHRRKGSHGLEIFQRCYCGEGLSCRIQKDHHQASNSSRLHTCQRH
notes: Dickkopf-1 (DKK1), human, recombinant, R&D Systems Cat. No. 5439-DK/CF; also called Dickkopf-1; source: bought: R&D Systems (Cat. No. 5439-DK/CF)
On to B1, for which the binding result is given as “binds”.
